Data: publication PMC11582362

B1: full length ADAR1 p110, wild type (FLAG-tagged and HA-tagged copies) [human] / full length ADAR1 p110, wild type (FLAG-tagged and HA-tagged copies) [human] (parent)
chain 1: MAEIKEKICDYLFNVSDSSALNLAKNIGLTKARDINAVLIDMERQGDVYRQGTTPPIWHLTDKKRERMQIKRNTNSVPETAPAAIPETKRNAEFLTCNIPTSNASNNMVTTEKVENGQEPVIKLENRQEARPEPARLKPPVHYNGPSKAGYVDFENGQWATDDIPDDLNSIRAAPGEFRAIMEMPSFYSHGLPRCSPYKKLTECQLKNPISGLLEYAQFASQTCEFNMIEQSGPPHEPRFKFQVVINGREFPPAEAGSKKVAKQDAAMKAMTILLEEAKAKDSGKSEESSHYSTEKESEKTAESQTPTPSATSFFSGKSPVTTLLECMHKLGNSCEFRLLSKEGPAHEPKFQYCVAVGAQTFPSVSAPSKKVAKQMAAEEAMKALHGEATNSMASDNQPEGMISESLDNLESMMPNKVRKIGELVRYLNTNPVGGLLEYARSHGFAAEFKLVDQSGPPHEPKFVYQAKVGGRWFPAVCAHSKKQGKQEAADAALRVLIGENEKAERMGFTEVTPVTGASLRRTMLLLSRSPEAQPKTLPLTGSTFHDQIAMLSHRCFNTLTNSFQPSLLGRKILAAIIMKKDSEDMGVVVSLGTGNRCVKGDSLSLKGETVNDCHAEIISRRGFIRFLYSELMKYNSQTAKDSIFEPAKGGEKLQIKKTVSFHLYISTAPCGDGALFDKSCSDRAMESTESRHYPVFENPKQGKLRTKVENGEGTIPVESSDIVPTWDGIRLGERLRTMSCSDKILRWNVLGLQGALLTHFLQPIYLKSVTLGYLFSQGHLTRAICCRVTRDGSAFEDGLRHPFIVNHPKVGRVSIYDSKRQSGKTKETSVNWCLADGYDLEILDGTRGTVDGPRNELSRVSKKNIFLLFKKLCSFRYRRDLLRLSYGEAKKAARDYETAKNYFKKGLKDMGYGNWISKPQEEKNFYLCPV
chain 2: B1 chain 1

Variants of: B1
Assay: co-immunoprecipitation (anti-FLAG IP, anti-HA western blot, bands quantified with ImageJ)
Conditions: HEK293T cells, in the presence of RNases, n = 3, parent: 70, read off a plot

Variant	response [%]
chain 1 V452A D453Q W473V C478S	11
